Test results from paper PMC10441670.

Legend:
[1] = system: MHV68UNG (murine gammaherpesvirus 68); assay: fluorescence anisotropy; details: N15 of strand 1 = abasic (AP) site made from U by UNG; G opposite
[2] = system: MHV68UNGΔN-Ls (murine gammaherpesvirus 68 / mouse chimera); assay: fluorescence anisotropy; details: N15 of strand 1 = abasic (AP) site made from U by UNG; G opposite

## AGAAAAGGGGAAAGNAAAGAGGAAAGGTGAGGAGGT / ACCTCCTCACCTTTCCTCTTTGCTTTCCCCTTTTCT [AP:G dsDNA (fluorescein)]
[1]
  Kd: 680 nM
[2]
  Kd: 751 nM
